Here are results for ten molecules from patent US10287317B2, “Proprotein convertase subtilisin kexin type 9 (PCSK9) allosteric binding ligands to modulate serum low density lipoprotein (LDL) levels” (SRX Cardio, LLC, priority 2013, dated 2019).

The target of this test is PCSK9-WT protein (human proprotein convertase subtilisin/kexin type 9) (human, UniProt Q8NBP7 31-692, limits assumed). Briefly: cell-based or functional assay.

*1 amine or outer side, *2 acyl side, *3 side chain or, on linkers, in order; H or OH if unused. Where no end group is shown, it is not given here. [ ]: non-standard residue; d: D form. Asp(NHCH2Ph) = Asp side-chain benzylamide, O=C(C[C@H](N[*:1])C(=O)[*:2])NCc1ccccc1; Cys(CH2-Ph) = S-benzyl-Cys, O=C([C@H](CSCc1ccccc1)N[*:1])[*:2]; Phe(3-CH2NH2) = O=C([C@H](Cc1cccc(CN[*:3])c1)N[*:1])[*:2]; d(pS) = N[C@H](COP(=O)(O)O)C(=O)O; pS = N[C@@H](COP(=O)(O)O)C(=O)O; Cit = NC(=O)NCCC[C@H](N)C(=O)O; βAla = NCCC(=O)O

PCSK9-WT protein (human proprotein convertase subtilisin/kexin type 9), sequence (Q8NBP7 31-692 limits assumed): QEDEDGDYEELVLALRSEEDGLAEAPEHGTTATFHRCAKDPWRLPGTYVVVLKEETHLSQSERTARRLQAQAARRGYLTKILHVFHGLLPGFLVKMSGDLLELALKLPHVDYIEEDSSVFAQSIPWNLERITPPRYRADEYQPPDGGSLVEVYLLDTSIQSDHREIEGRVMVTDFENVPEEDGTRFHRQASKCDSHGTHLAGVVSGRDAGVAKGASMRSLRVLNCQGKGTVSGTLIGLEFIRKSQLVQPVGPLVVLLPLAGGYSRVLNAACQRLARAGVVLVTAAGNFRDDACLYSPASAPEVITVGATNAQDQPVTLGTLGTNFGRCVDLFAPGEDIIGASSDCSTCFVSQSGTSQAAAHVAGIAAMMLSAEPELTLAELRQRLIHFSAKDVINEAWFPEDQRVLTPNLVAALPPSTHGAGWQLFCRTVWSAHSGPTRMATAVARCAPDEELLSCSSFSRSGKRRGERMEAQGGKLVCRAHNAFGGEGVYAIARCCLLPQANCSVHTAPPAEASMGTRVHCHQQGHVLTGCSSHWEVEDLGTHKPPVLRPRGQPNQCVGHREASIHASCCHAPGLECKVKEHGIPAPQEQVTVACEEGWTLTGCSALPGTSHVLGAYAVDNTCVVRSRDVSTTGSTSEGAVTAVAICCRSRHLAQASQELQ

As for TL[Asp(NHCH2Ph)]TWSS[pS] [SRX61: Thr-Leu-Asp(NHCH2Ph)-Thr-Trp-Ser-Ser-Ser(p)], the “Cell Activity of Exemplified Peptides (FACS of cell surface LDLR, HuH7/shPCSK9 cells)” value is > 30 % inhibition above control at 100 uM.
As for Ac-Tyr-Trp-Gly [SRX72: Ac-Tyr-Trp-Gly], the “Cell Activity of Exemplified Peptides (FACS of cell surface LDLR, HuH7/shPCSK9 cells)” value is > 30 % inhibition below control at 100 uM.
Same read-out and setting: the result for [βAla][Phe(3-CH2NH2)]V[d(pS)]FW [SRX56: β-Ala-Phe(3-CH2NH2)-Val-D-Ser(p)-Phe-Trp] reads > 30 % inhibition above control at 100 uM; that for VLELYW [SRX65: Val-Leu-Glu-Leu-Tyr-Trp], > 30 % inhibition above control at 100 uM.
In the case of VYV[Cit]FW-NHEt [SRX314: Val-Tyr-Val-Cit-Phe-Trp-NHEt], the “cell surface LDLR levels, FACS in HuH7 cells, 10 nM recombinant PCSK9” value (from here on “cell surface LDLR levels, FACS”) was above 60 % reversal.
For TL[Cys(CH2-Ph)]TWSS[pS] [SRX60: Thr-Leu-Cys(CH2-Ph)-Thr-Trp-Ser-Ser-Ser(p)], the “Cell Activity of Exemplified Peptides (FACS of cell surface LDLR, HuH7/shPCSK9 cells)” value was > 30 % inhibition above control at 100 uM.
For VYVRFW (not fully specified; printed as Val-Tyr-Val-Arg-Phe-Trp) [SRX55: Val-Tyr-Val-Arg-Phe-Trp], the “Cell Activity of Exemplified Peptides (FACS of cell surface LDLR, HuH7/shPCSK9 cells)” value was > 30 % inhibition above control at 100 uM.
Take VYVRF-{NH(cyclopentyl)} [SRX321: Val-Tyr-Val-Arg-Phe-NH(cyclopentyl)]: the “cell surface LDLR levels, FACS” value was above 60 % reversal.
Consider LDLFFS [SRX66: Leu-Asp-Leu-Phe-Phe-Ser], for which the “Cell Activity of Exemplified Peptides (FACS of cell surface LDLR, HuH7/shPCSK9 cells)” value was > 30 % inhibition above control at 100 uM.

B1: SRX310: Val-Tyr-Val-Cit-Phe-Trp-NH2 (peptide)
peptide: VYV[Cit]FW-NH2
modifications: N-terminus assumed
SMILES: CC(C)[C@H](N)C(=O)N[C@@H](Cc1ccc(O)cc1)C(=O)N[C@H](C(=O)N[C@@H](CCCNC(N)=O)C(=O)N[C@@H](Cc1ccccc1)C(=O)N[C@@H](Cc1c[nH]c2ccccc12)C(N)=O)C(C)C
Turning to B1, the “cell surface LDLR levels, FACS” value is 60 % reversal.
